# What was measured:
# [1] = system: ZFP7263 linker TYPRPLLAKP center linker F2-F3 TGSQKP replaced by TYPRPLLAKP (artificial); assay: ELONA; settings: normalized ELISA score
# [2] = system: ZFP7263 linker LRQKDERP (artificial)
# [3] = system: ZFP7263 linker TPRPPIPKP (artificial)
# [4] = system: ZFP7263 linker TGEGGKP (artificial)
# [5] = system: ZFP7263 (host, center linker TGSQKP) (artificial)
# [6] = system: ZFP7263 linker TQRPQIPPKP (artificial)
# [7] = system: ZFP7263 linker TPLCQRPMKQKP (artificial)
# [8] = system: ZFP7263 linker TPNRCPPTKP (artificial)
# [9] = system: ZFP7263 linker TGGGGSQKP (artificial)
# [10] = system: ZFP8196 linker 1f center linker F2-F3 TGEKP replaced by TYPRPIAAKP (artificial); assay: ELONA; settings: normalized ELISA score
# [11] = system: ZFP8196 linker TCPRPPTRKP (artificial)
# [12] = system: ZFP8196 linker TVSPAPCRSKP (artificial)
# [13] = system: ZFP8196 linker TPGLHRPKP (artificial)
# [14] = system: ZFP8196 linker TSSPRSNAKP (artificial)
# [15] = system: ZFP8196 linker TPSHTPRPKP (artificial)
# [16] = system: ZFP8196 linker TEPRAKPPKP (artificial)
# [17] = system: ZFP8196 linker TPDRPISTCKP (artificial)
# [18] = system: ZFP8196 linker TPDAPKPKP (artificial)
# [19] = system: ZFP8196 linker LRQKDERP (artificial)
# [20] = system: ZFP8196 linker 1d (artificial)
# [21] = system: ZFP8196 linker TGEGGKP (artificial)
# [22] = system: ZFP8196 (host, center linker TGEKP) (artificial)
# [23] = system: ZFP8196 linker TGYSIPRPKP (artificial)
# [24] = system: ZFP8196 linker 1c (artificial)
# [25] = system: ZFP8196 linker TSPRLPAPKP (artificial)
# [26] = system: ZFP8196 linker TGGGGSQKP (artificial)
# [27] = system: ZFN7263 linker TPNRCPPTKP (artificial); assay: cell_activity; settings: yeast, paired with 7264 ZFN
# [28] = system: ZFN7263 linker TPRPPIPKP (artificial); assay: cell_activity; settings: yeast, paired with 7264 ZFN
# [29] = system: ZFN7263 linker TGGGGSQKP (artificial); assay: cell_activity; settings: yeast, paired with 7264 ZFN
# [30] = system: ZFN7263 (host) (artificial); assay: cell_activity; settings: yeast, paired with 7264 ZFN
# [31] = system: ZFN7263 linker TPLCQRPMKQKP (artificial); assay: cell_activity; settings: yeast, paired with 7264 ZFN
# [32] = system: ZFN7263 linker TYPRPLLAKP (artificial); assay: cell_activity; settings: yeast, paired with 7264 ZFN
# [33] = system: ZFN7263 linker TQRPQIPPKP (artificial); assay: cell_activity; settings: yeast, paired with 7264 ZFN
# [34] = system: ZFP7264 linker 1e center linker F2-F3 TGSQKP replaced by TVPRPTPPKP (artificial); assay: ELONA; settings: normalized ELISA score
# [35] = system: ZFP7264 (host, center linker TGSQKP) (artificial)
# [36] = system: ZFP7264 linker TKHGTPKHREDKP (artificial)
# [37] = system: ZFP7264 linker TGLPKPKP (artificial)
# [38] = system: ZFP7264 linker LRQKDERP (artificial)
# [39] = system: ZFP7264 linker TLPLPRPKP (artificial)
# [40] = system: ZFP7264 linker TGGGGSQKP (artificial)
# [41] = system: ZFP7264 linker TSRPRPKP (artificial)
# [42] = system: ZFP7264 linker TGEGGKP (artificial)
# [43] = system: ZFP7264 linker TLPPCFRPKP (artificial)
# [44] = system: ZFN7264 linker TGLPKPKP (artificial); assay: cell_activity; settings: yeast, paired with 7263 ZFN
# [45] = system: ZFN7264 linker TGGGGSQKP (artificial); assay: cell_activity; settings: yeast, paired with 7263 ZFN
# [46] = system: ZFN7264 linker TSRPRPKP (artificial); assay: cell_activity; settings: yeast, paired with 7263 ZFN
# [47] = system: ZFN7264 (host, center linker TGSQKP) (synthetic); assay: cell_activity; settings: yeast, partner ZFN7263; host on 0-bp gap = 1.00; host data same as Table 9
# [48] = system: ZFN7264 linker 1e (artificial); assay: cell_activity; settings: yeast, paired with 7263 ZFN
sequence,measurement,setting,value
TTAGCCACTCTGCTGGAAGTGTATC (double strand) [7263 target gap C],binding signal,[1],1.27
same,binding signal (normalized ELISA),[2],0.02
same,binding signal (normalized ELISA),[3],0.67
same,binding signal (normalized ELISA),[4],0.02
same,binding signal (normalized ELISA),[5],0.01
same,binding signal (normalized ELISA),[6],1
same,binding signal (normalized ELISA),[7],1.28
same,binding signal (normalized ELISA),[8],1.13
same,binding signal (normalized ELISA),[9],0.05
TTAGATAAACTGACAAAAGGCTATC (double strand) [8196 target gap A],binding signal,[10],0.41
same,binding signal (normalized ELISA),[11],0.18
same,binding signal (normalized ELISA),[12],0.03
same,binding signal (normalized ELISA),[13],0.19
same,binding signal (normalized ELISA),[14],0.05
same,binding signal (normalized ELISA),[15],0.3
same,binding signal (normalized ELISA),[16],0.39
same,binding signal (normalized ELISA),[17],0.11
same,binding signal (normalized ELISA),[18],0.16
same,binding signal (normalized ELISA),[19],0.01
same,binding signal (normalized ELISA),[20],0.23
same,binding signal (normalized ELISA),[21],0
same,binding signal (normalized ELISA),[22],0.01
same,binding signal (normalized ELISA),[23],0.13
same,binding signal (normalized ELISA),[24],0.2
same,binding signal (normalized ELISA),[25],0.26
same,binding signal (normalized ELISA),[26],0
ACTCTGATGGAAG (double strand) [7263 yeast half-site gap A],activity (normalized MEL-1),[27],1.3
same,activity (normalized MEL-1),[28],1.3
same,activity (normalized MEL-1),[29],0.14
same,activity (normalized MEL-1),[30],0.05
same,activity (normalized MEL-1),[31],0.97
same,activity (normalized MEL-1),[32],0.69
same,activity (normalized MEL-1),[33],1.05
TTAGCCACTCTGGTGGAAGTGTATC (double strand) [7263 target gap G],binding signal,[1],3.88
same,binding signal (normalized ELISA),[2],0.18
same,binding signal (normalized ELISA),[3],1.85
same,binding signal (normalized ELISA),[4],0.05
same,binding signal (normalized ELISA),[5],0.03
same,binding signal (normalized ELISA),[6],2.86
same,binding signal (normalized ELISA),[7],3.44
same,binding signal (normalized ELISA),[8],2.62
same,binding signal (normalized ELISA),[9],0.41
ACTCTGCTGGAAG (double strand) [7263 yeast half-site gap C],activity (normalized MEL-1),[27],0.34
same,activity (normalized MEL-1),[28],1.41
same,activity (normalized MEL-1),[29],0.04
same,activity (normalized MEL-1),[30],0.05
same,activity (normalized MEL-1),[31],0.3
same,activity (normalized MEL-1),[32],0.37
same,activity (normalized MEL-1),[33],0.43
ACTCTGGTGGAAG (double strand) [7263 yeast half-site gap G],activity (normalized MEL-1),[27],2.85
same,activity (normalized MEL-1),[28],2.18
same,activity (normalized MEL-1),[29],0.6
same,activity (normalized MEL-1),[30],0.09
same,activity (normalized MEL-1),[31],1.52
same,activity (normalized MEL-1),[32],2.21
same,activity (normalized MEL-1),[33],2.18
TTAGTTAAAGCGCGCTCCGAATATC (double strand) [7264 target gap C],binding signal,[34],1.02
same,binding signal (normalized ELISA),[35],0
same,binding signal (normalized ELISA),[36],0.01
same,binding signal (normalized ELISA),[37],0.11
same,binding signal (normalized ELISA),[38],0.03
same,binding signal (normalized ELISA),[39],0.25
same,binding signal (normalized ELISA),[40],0.04
same,binding signal (normalized ELISA),[41],0.22
same,binding signal (normalized ELISA),[42],0.03
same,binding signal (normalized ELISA),[43],0.25
AAAGCGGGCTCCG (double strand) [7264 yeast half-site gap G],activity (normalized MEL-1),[44],0.42
same,activity (normalized MEL-1),[45],0.14
same,activity (normalized MEL-1),[46],0.61
same,activity (normalized MEL-1),[47],0.09
same,activity (normalized MEL-1),[48],1.4
